The record followed here is PMC6581901, “The SRP signal sequence of KdpD” (Scientific Reports, 2019).

Experiment [1] addresses T1, SRP reconstituted from Ffh 406S/423C and 4.5S RNA (E. coli, UniProt P0AGD7 1-453, M423C | C406S).
T1 construct: Ffh of E. coli SRP with a cysteine at 423 (M domain pocket) and a serine at 406, from pMS-Ffh-M423C-C-Strep; Ribonucleoprotein with 4.5S RNA; also called SRP 423; Ffh M423C; source: E. coli BL21 (DE3), purified (Strep-Tactin, Superdex 75); reconstituted with in vitro transcribed 4.5S RNA
T1 sequence (looked up): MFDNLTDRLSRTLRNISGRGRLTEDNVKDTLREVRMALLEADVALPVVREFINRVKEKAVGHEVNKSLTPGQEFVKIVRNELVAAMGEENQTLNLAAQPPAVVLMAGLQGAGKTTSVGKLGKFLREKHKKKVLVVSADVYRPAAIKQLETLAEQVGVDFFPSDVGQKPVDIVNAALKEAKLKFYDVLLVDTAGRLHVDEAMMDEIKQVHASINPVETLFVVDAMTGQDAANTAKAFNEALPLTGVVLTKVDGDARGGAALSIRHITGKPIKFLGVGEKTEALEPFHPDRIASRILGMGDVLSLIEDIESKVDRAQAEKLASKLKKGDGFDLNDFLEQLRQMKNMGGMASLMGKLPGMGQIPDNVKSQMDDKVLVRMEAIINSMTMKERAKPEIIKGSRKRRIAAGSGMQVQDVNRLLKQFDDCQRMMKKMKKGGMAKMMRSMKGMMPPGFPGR
Nature of the experiment: cross-linking; disulfide cross-linking with 1 mM copper phenanthroline; 2 µM reconstituted SRP (Ffh + 3 µM 4.5S RNA) with 20 µM peptide, 1 h on ice, 50 mM Tris pH 7.4, 150 mM NaCl, 10 mM MgCl2; TCA precipitation, SDS-PAGE with or without DTT. To be noted: both partners purified.

The target in experiment [2] is T2, SRP reconstituted from wild-type Ffh (406C) and 4.5S RNA (E. coli, UniProt P0AGD7 1-453).
T2 construct: Ffh (fifty-four-homolog), 48-kDa protein component of E. coli SRP, expressed from pMS-Ffh-C-Strep; Ribonucleoprotein: Ffh with a 1.5-fold molar excess of 4.5S RNA; the RNA is not written as a chain; also called wildtype SRP; source: E. coli BL21 (DE3), purified (Strep-Tactin, Superdex 75); reconstituted with in vitro transcribed 4.5S RNA
T2 sequence (looked up): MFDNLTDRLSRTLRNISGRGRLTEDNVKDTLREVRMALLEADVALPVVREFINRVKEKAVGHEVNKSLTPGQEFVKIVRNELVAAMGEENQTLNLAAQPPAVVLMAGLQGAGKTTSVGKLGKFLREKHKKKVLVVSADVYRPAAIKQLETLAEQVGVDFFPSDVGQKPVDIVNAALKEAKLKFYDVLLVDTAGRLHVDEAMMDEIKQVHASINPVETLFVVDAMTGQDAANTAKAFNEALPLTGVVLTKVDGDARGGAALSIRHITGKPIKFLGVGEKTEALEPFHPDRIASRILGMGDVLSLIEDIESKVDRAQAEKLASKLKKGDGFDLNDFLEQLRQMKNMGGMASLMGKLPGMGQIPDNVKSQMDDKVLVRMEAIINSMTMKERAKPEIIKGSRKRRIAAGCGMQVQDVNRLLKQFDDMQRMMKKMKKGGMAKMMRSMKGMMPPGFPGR
The description is as above. The settings on record: both partners purified.

B1: KdpD peptide (residues 22-48), in vitro synthesized (peptide)
peptide: Ac-RGKLKVFFGACAGVGKTWAMLAEAQRL-NH2
notes: also called KdpD22-48; KdpD22–48 peptide; source: synthetic peptide (GENOSPHERE Biotechnologies, purity >95%)
Consider B1, for which the binding result in experiment [1] and in experiment [2] was “binds” throughout.
